Patent publication US20250163167A1 (SYNTHEKINE, published 2025)
Numbering of substitutions follows the chain as printed.

T1: human IL-10 receptor (hIL-10R alpha and beta chains) on HEK-Blue IL-10 reporter cells (human, UniProt Q13651 22-578; Q08334 20-325)
T1 sequence 1: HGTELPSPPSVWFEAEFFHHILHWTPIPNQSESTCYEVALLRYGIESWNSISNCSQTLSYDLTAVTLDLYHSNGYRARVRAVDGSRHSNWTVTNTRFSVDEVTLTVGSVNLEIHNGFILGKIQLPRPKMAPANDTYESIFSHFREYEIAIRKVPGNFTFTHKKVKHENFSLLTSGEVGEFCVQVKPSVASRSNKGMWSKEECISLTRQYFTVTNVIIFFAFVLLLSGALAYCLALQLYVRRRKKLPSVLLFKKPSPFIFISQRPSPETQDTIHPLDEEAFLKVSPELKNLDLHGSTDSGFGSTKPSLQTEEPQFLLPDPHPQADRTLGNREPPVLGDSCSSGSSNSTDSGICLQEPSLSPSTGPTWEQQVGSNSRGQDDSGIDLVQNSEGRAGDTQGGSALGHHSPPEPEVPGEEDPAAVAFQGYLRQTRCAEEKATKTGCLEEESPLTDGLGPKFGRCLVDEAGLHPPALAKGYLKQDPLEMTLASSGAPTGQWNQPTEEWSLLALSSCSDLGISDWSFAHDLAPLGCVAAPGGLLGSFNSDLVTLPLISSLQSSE
T1 sequence 2: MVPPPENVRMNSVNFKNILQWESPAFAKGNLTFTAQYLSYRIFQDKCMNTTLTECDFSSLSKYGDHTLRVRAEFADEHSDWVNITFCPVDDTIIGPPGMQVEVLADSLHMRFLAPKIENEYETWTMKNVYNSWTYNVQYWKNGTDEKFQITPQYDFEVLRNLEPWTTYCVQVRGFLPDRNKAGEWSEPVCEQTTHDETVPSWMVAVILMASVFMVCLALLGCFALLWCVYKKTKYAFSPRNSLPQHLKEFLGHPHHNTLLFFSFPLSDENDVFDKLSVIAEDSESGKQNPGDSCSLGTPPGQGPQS

T2: hIL10Rb ECD antigen (human, UniProt Q08334 20-220)
T2 construct: Antigen of biopanning and PE-ELISA; also called extracellular domain of hIL10Rb
T2 sequence: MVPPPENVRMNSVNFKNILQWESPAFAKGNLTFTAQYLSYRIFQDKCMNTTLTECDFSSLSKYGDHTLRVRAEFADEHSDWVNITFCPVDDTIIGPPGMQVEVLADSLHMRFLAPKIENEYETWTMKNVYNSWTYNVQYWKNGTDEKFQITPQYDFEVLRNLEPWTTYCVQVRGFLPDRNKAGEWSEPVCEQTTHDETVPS

T3: hIL10Ra ECD antigen (human, UniProt Q13651 22-235)
T3 construct: also called ECD of IL10Ra; extracellular domain of hIL10Ra
T3 sequence: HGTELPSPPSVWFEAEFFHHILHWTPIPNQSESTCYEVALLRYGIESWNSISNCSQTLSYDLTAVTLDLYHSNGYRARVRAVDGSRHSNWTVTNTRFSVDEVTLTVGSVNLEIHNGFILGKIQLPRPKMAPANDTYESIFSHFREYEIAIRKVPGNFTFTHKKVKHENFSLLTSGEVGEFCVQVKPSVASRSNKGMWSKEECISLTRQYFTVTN

B1: IL10R binding molecule of SEQ ID NO: 302 (bispecific antibody)
chain: QVQLQESGGGSVQAGGSLRLSCAASGYSNCSYDMTWYRQAPGKEREFVSAIHSDGSTRYADSVKGRFFISQDNAKNTVYLQMNSLKPEDTAMYYCKTDPLHCRAHGGSWYSVRANYWGQGTQVTVSSGGGSQVQLQESGGGSVEAGGSLRLSCAASGYTHSSYCMGWFRQAPGKEREGVAAIDVDGSTTYADSVKGRFTISKDNAKNTLYLQMNSLKPEDTGMYYCAAEFADCSSNYFLPPGAVRYWGQGTQVTVSSASHHHHHH
B2: IL10R binding molecule of SEQ ID NO: 303 (bispecific antibody)
chain: QVQLQESGGGSVQAGGSLRLSCAASGYSNCSYDMTWYRQAPGKEREFVSAIHSDGSTRYADSVKGRFFISQDNAKNTVYLQMNSLKPEDTAMYYCKTDPLHCRAHGGSWYSVRANYWGQGTQVTVSSGGGSQVQLQESGGGSVQAGGSLRLSCAASGYSYSSYCMGWFRQAPGKEREGVATIDSDGMTRYADSVKGRFTISKDNAKNTLYLQMNSLKPEDTAMYYCAAPLYDCDSGAVGRNPPYWGQGTQVTVSSASHHHHHH
B3: hIL10Rb VHH-5 (VHH)
VHH: QVQLQESGGGLVQPGGSLRLSCAASGYTYSSYCMGWFRQAPGKEREGVAHIDSDGSTTYADSVKGRFTISKDNAKNTLYLQMNSLKPEDTAMYYCAADPIPGPGYCDGGPNKYWGQGTQVTVSS
notes: Phage clone, periplasmic extract
B4: hIL10Rb VHH-22 (VHH)
VHH: B3 VHH with L11S, P14A, Y29D, S31R, Q39K, T58S
notes: as for B3
B5: hIL10Rb VHH-20 (VHH)
VHH: B3 VHH with L11S, P14A, T68A
notes: as for B3
B6: hIL10Rb VHH-24 (VHH)
VHH: B3 VHH with L11S, P14A, R19K, K112N
notes: as for B3
B7: hIL10Rb VHH-13 (VHH)
VHH: B3 VHH with L11S, P14A, T58S, K112N
notes: as for B3
B8: hIL10Rb VHH-10 (VHH)
VHH: B3 VHH with T68A
notes: as for B3
B9: hIL10Rb VHH-25 (VHH)
VHH: B3 VHH with L11S, P14A, V48I, K112N
notes: as for B3
B10: hIL10Rb VHH-17 (VHH)
VHH: QVQLQESGGGSVQAGGSLRLSCTVSRYTASVNYMGWFRQAPGKEREGVATIFTGAGTTYYANSVKGRFTISRDNAKNTAYLQMNSLKPEDTAMYYCAVDFRGGLLYRPAYEYTYRGQGTQVTVSS
notes: as for B3
B11: hIL10Rb VHH-2 (VHH)
VHH: QVQLQESGGGSVQAGGSLRLSCAASGYTYSSYCMGWFRQAPGKEREGVAAIDSDGSTRYADSVKGRFTISKDNAKNTLYLQMNSLKPEDTAMYYCAAEPYCSGGYKRTMVAEFGYWGQGTQVTVSS
notes: as for B3
B12: hIL10Rb VHH-23 (VHH)
VHH: B11 VHH with N76K, T77I, P87V, Y115F
notes: as for B3
B13: hIL10Rb VHH-7 (VHH)
VHH: B11 VHH with Y32G, A50T, D52N, R58N, K106P, T108W, M109S
notes: as for B3
B14: hIL10Rb VHH-11 (VHH)
VHH: B11 VHH with E44G
notes: as for B3
B15: hIL10Rb VHH-18 (VHH)
VHH: B11 VHH with Y27D, A50F, K64E, K106H, T108K, M109E, V110M
notes: as for B3
B16: hIL10Rb VHH-14 (VHH)
VHH: B11 VHH with Y32G, A50T, D52N, R58N, A91G, K106P, T108W, M109S
notes: as for B3
B17: hIL10Rb VHH-9 (VHH)
VHH: B11 VHH with S11L, A14P, Y32G, A50T, D52N, R58N, K106P, T108W, M109S
notes: as for B3
B18: hIL10Rb VHH-8 (VHH)
VHH: QVQLQESGGGSVQAGGSLRLSCAASGYSYSSYCMGWFRQAPGKEREGVAAIASDGSTSYADSVKGRFAISKDNAKNTLYLQMASLKPEDTAMYYCAAEPWCTGGYSRLTPAEYGYWGQGTQVTVSS
notes: as for B3
B19: hIL10Ra VHH18 (VHH)
VHH: QVQLQESGGGSVQAGGSLRLSCAVSGYTYNSNCMGWFRQAPGKEREGVATIYTGVGSTYYADSVKGRFTISQDNAKNTVYLQMNSLKPEDTAMYYCAAEPLSRVYGGSCPTPTFGYWGQGTQVTVSS
notes: as for B3
B20: hIL10Ra VHH13 (VHH)
VHH: B19 VHH with T28S, N30S, Y52H, V55G, V104L
notes: as for B3
B21: hIL10Ra VHH7 (VHH)
VHH: B19 VHH with Y29F
notes: as for B3
B22: hIL10Ra VHH11 (VHH)
VHH: QVQLQESGGGSVQAGGSLRLSCGASRYTYSSYCMGWFRQAPGKEREGVAVIDSDGSTSYADSVKGRFTISKDNGKNTLYLQMNSLKPEDTAMYYCAADLGHYRPPCGVLYLGMDYWGKGTQVTVSS
notes: as for B3
B23: hIL10Ra VHH15 (VHH)
VHH: B22 VHH with R26G, S31G
notes: as for B3
B24: hIL10Ra VHH16 (VHH)
VHH: QVQLQESGGGSVQAGGSLRLACAASRYTYSNYCMGWFRQAPGKEREGVATIDSDGNTSYADSVKGRFTISRDNAKNTLYLQMNSLKPGDTAMYYCAADLGHYRPPCGAYYYGMDYWGKGTQVTVSS
notes: as for B3
B25: hIL10Ra VHH2 (VHH)
VHH: QVQLQESGGGSVQAGGSLRLSCVASRYLYSTNYMAWFRQSPGKEREAVAVIYTASGATLYTDSVKGRFTISQDNAKMTVYLQMNRLKSEDTAMYYCAAVRKTDSYLFDAQSFTYWGQGTQVTVSS
notes: as for B3
B26: hIL10Ra VHH4 (VHH)
VHH: B25 VHH with V12I, V23A, T31I, N32D, A47P, V48A, L59F, T61P, R85S
notes: as for B3
B27: hIL10Ra VHH5 (VHH)
VHH: B25 VHH with V12I, R26K, V50A, T61S, V64N, R85S, D103G
notes: as for B3
B28: hIL10Ra VHH3 (VHH)
VHH: B25 VHH with V12I
notes: as for B3

The binders below were run against T1, human IL-10 receptor (hIL-10R alpha and …) (assay: cell-based or functional assay).
For B1, the “Abs 630 (25 nM)” value was 1.98 Abs 630 and the “Abs 630 (100 nM)” value was 2.09 Abs 630.
B2 was tested, and the “Abs 630 (25 nM)” value was 1.92 Abs 630 and the “Abs 630 (100 nM)” value was 1.93 Abs 630.

These binders were tested against T2, hIL10Rb ECD antigen (assay: periplasmic extract ELISA (PE-ELISA) of phage clones).
B3: binds.
B4: binds.
B5: binds.
B6: binds.
B7: binds.
B8: binds.
B9: binds.
B10: binds.
B11: binds.
B12: binds.
B13: binds.
B14: binds.
B15: binds.
B16: binds.
B17: binds.
B18: binds.

The binders below were run against T3, hIL10Ra ECD antigen in the same assay as above.
B19: binds.
B20: binds.
B21: binds.
B22: binds.
B23: binds.
B24: binds.
B25: binds.
B26: binds.
B27: binds.
B28: binds.
